Data as given in patent US20120195879A1.

Columns and labels:
human Kv1.1 (human) = human Kv1.1 (human) (UniProt Q09470); test: cell-based or functional assay
human Kv1.3 (human) = human Kv1.3 (human) (UniProt P22001); test: cell-based or functional assay
Chain of human Kv1.3 (human) (P22001 whole entry): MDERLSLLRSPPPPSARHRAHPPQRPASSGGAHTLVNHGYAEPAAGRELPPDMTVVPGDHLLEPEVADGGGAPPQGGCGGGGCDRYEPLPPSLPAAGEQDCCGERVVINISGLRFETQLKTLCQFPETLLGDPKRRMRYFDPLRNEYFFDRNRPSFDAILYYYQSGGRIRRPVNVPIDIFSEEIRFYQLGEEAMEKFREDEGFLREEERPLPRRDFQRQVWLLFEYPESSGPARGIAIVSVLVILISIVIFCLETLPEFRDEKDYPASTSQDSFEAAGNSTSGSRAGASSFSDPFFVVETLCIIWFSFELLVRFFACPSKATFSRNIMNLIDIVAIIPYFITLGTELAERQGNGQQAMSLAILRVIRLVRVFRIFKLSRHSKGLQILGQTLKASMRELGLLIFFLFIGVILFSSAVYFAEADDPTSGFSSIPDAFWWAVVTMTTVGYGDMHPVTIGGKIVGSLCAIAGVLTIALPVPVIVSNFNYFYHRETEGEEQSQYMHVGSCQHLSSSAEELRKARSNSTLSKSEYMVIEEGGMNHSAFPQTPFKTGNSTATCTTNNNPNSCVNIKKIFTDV

Chain of human Kv1.1 (human) (Q09470 whole entry): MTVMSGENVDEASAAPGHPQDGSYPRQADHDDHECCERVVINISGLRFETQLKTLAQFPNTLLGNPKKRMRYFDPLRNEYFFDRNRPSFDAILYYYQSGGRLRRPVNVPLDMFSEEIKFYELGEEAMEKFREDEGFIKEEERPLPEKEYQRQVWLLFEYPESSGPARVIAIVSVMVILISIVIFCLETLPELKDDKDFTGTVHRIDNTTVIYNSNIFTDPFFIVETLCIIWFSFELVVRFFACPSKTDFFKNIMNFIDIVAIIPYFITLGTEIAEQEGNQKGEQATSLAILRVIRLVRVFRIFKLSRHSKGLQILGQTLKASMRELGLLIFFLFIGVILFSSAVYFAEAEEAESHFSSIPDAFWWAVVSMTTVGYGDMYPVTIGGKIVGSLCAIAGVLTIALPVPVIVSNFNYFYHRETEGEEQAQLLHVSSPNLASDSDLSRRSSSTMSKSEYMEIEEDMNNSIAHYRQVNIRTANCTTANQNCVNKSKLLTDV

Substance	Kv1.1 (PX) IC50 (human Kv1.1 (human))	Kv1.1/Kv1.3 Selectivity Ratio by PX (human Kv1.3 (human))	Kv1.3 (PX) IC50 (human Kv1.3 (human))	Potency Relative to ShK (WB, IL2) (human Kv1.3 (human))	WB (IFNg) IC50 (human Kv1.3 (human))	WB (IL-2) IC50 (human Kv1.3 (human))
20 kDa-PEG-ShK (peptide)	1.63 nM	5.44	0.299 nM	5.67	0.84 nM	0.38 nM
Monovalent Fc/Fc-L10-ShK[2-35] heterodimer (Fc fusion)	–	–	–	32.1	–	–
